In US20220251222A1 (Johns Hopkins, published 2022) one finds binding result and Kd data, which are given here for two molecules.

Assay [1] has as its target T1, IL-8RB expressed on lentivirally transduced HEK 293T cells (UniProt P25025 1-360, limits assumed).
T1 construct: whole, on cells; also called IL-8R^+ cells; IL-6Rα^-/IL-8R^+ HEK 293T cells
T1 sequence (looked up): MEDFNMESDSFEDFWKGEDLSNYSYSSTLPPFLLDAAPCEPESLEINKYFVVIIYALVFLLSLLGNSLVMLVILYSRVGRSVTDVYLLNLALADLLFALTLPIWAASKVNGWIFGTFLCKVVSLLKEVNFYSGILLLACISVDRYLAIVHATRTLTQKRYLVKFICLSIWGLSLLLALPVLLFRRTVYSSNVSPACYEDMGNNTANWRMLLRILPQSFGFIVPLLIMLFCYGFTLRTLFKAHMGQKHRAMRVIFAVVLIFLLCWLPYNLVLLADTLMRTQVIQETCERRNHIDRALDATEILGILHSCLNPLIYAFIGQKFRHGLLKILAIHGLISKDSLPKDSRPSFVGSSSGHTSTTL
The assay is described as follows: flow cytometry binding titration on IL-6R-/IL-8R+ HEK 293T cells, detected with FITC anti-human IgG1. As for the experimental part:
(§1) HEK 293T cells were cultured in Dulbecco's modified Eagle's medium (DMEM, Mediatech) supplemented with 10% (Hyclone), 2 mM L-glutamine and 100 U/mL penicillin-streptomycin (Gibco). For surface binding assays, IL-6Rα⁺/IL-8R⁻, IL-6Rα⁻/IL-8R⁺, IL-6Rα⁺/IL-8R⁺, and […] HEK 293T cells were trypsinized for detachment, resuspended in PBSA, and then aliquoted into 96-well plates (1×10⁵ cells per well). Cells were incubated with titrations of various monoclonal or bispecific antibodies for 2 hr at 4° C. with rotation. Cells were then washed and incubated with a 1:50 dilution of fluorescein isothiocyanate (FITC)-conjugated anti-human IgG1 antibody (Sigma-Aldrich, Clone 8c/6-39) in PBSA for 15 min at 4° C. After a final wash, cells were resuspended in PBSA and analyzed on a CytoFLEX flow cytometer (Beckman Coulter). Binding isotherms were fitted to a first-order logistic model and KD values were calculated using GraphPad Prism data analysis software. Mean fluorescence intensity (MFI) of unstimulated cells was subtracted. […]
(§2) To determine whether engineered bispecific binding agents BS1 and BS2 specifically engage target antigens in a physiologically relevant context, antibody binding to IL-6Rα⁺/IL-8R⁻, IL-6Rα⁻/IL-8R⁺, IL-6Rα⁺/IL-8R⁺, and IL-6Rα⁻/IL-8R⁻ lentivirally transduced HEK 293T cells was measured via flow cytometry. […]

Assay [2] addresses T2, human IL-6Rα extracellular domain (ECD), residues 89-303 of the mature protein, with C-terminal biotin … (human, UniProt P08887 108-322, biotinylated with BirA ligase on the biotin acceptor peptide).
T2 construct: range 89-303; The range 89-303 counts on the mature protein, not on the precursor; Any linkers between the ECD, BAP and His tag are not described; also called IL-6Rα ECD; recombinant IL-6Rα
T2 sequence: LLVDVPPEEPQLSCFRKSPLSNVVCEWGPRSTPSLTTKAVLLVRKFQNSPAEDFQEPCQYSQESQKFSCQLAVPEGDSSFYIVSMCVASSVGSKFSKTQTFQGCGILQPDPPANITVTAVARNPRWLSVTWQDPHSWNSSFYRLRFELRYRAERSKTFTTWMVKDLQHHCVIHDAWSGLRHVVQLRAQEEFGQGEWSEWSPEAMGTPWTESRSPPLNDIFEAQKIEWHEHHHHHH
The assay can be described thus: BLI equilibrium titration, biotinylated IL-6Rα ECD on streptavidin tips; bivalent IgG, BLI on recombinant IL-6Rα. As for the experimental part:
Biotinylated human IL-6Rα ECD was immobilized to streptavidin-coated tips for analysis on an Octet® Red96 BLI instrument (ForteBio). Less than 5 signal units (nm) of receptor was immobilized to minimize mass transfer effects. Tips were exposed to serial dilutions of the anti-IL-6R antibody tocilizumab, the anti-IL-8R antibody 10H2, BS1, or BS2 in a 96-well plate for 300 s and dissociation was measured for 600 s. Surface regeneration for all interactions was conducted using 15 s exposure to 0.1 M glycine pH 3.0. Experiments were carried out in PBSA (phosphate-buffered saline [PBS] pH 7.3 plus 0.1% bovine serum albumin [BSA, Thermo]) at 25° C. Data was visualized and processed using the Octet® Data Analysis software version 7.1 (ForteBio). Equilibrium titration curve fitting and equilibrium dissociation constant (KD) value determination was implemented in GraphPad Prism software using a first-order logistic model. Experiments were reproduced two times with similar results.
To confirm functionality of our bispecific agents, antibodies were titrated against recombinant IL-6Rα via BLI. […] Moreover, both tocilizumab-containing engineered bispecific binding agents also bound IL-6Rα (FIG. 5).

The target of assay [3] is T3, IL-6Rα expressed on lentivirally transduced HEK 293T cells (UniProt P08887 20-468, limits assumed).
T3 construct: whole, on cells; also called IL-6Rα^+ cells; IL-6Rα^+/IL-8R^- HEK 293T cells
T3 sequence (looked up): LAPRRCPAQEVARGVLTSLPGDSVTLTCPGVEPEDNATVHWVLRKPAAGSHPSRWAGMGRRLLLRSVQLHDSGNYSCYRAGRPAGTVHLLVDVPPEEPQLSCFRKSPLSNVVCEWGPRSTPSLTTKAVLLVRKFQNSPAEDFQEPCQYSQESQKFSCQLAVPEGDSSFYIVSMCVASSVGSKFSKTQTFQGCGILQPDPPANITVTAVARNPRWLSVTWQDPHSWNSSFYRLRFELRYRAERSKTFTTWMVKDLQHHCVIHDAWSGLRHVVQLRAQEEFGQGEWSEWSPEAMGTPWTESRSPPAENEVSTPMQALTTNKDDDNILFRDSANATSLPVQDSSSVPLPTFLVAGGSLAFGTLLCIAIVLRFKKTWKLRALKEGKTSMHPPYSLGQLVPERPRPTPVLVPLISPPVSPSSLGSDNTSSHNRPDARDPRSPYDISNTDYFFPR
The assay can be described thus: flow cytometry titration on IL-6Rα+/IL-8R+ HEK 293T cells; IL-6Rα+/IL-8R+ 293T cells (FIG. 7C). As for the experimental part:
as §1, §2
A general note: A flow cytometer gives signals particle by particle.

For assay [4], the target named is T1, IL-8RB expressed on lentivirally …. The assay can be described thus: flow cytometry titration on IL-6Rα-/IL-8R+ HEK 293T cells; IL-6Rα-/IL-8R+ 293T cells (FIG. 7B). As for the experimental part: as §1, §2
Assay [5] addresses T3, IL-6Rα expressed on lentivirally …. The assay can be described thus: flow cytometry titration on IL-6Rα+/IL-8R- HEK 293T cells; IL-6Rα+/IL-8R- 293T cells (FIG. 7A). The protocol: as §1, §2

B1: tocilizumab, recombinant monoclonal hIgG1 (anti-IL-6Rα) (antibody, V domains shown)
VH: EVQLQESGPGLVRPSQTLSLTCTVSGYSITSDHAWSWVRQPPGRGLEWIGYISYSGITTYNPSLKSRVTMLRDTSKNQFSLRLSSVTAADTAVYYCARSLARTTAMDYWGQGSLVTVSS
VL: DIQMTQSPSSLSASVGDRVTITCRASQDISSYLNWYQQKPGKAPKLLIYYTSRLHSGVPSRFSGSGSGTDFTFTISSLQPEDIATYYCQQGNTLPYTFGQGTKVEIK
notes: also called anti-IL-6Rα antibody
For B1, the binding result in assay [1] is given as “no binding (tested: 1e-6 M)”. Moreover, the Kd in assay [2] was determined as 28 nM; in assay [3], 3.1 nM.

B2: BS2 bispecific antibody (scFv-IgG fusion: 10H2 IgG with tocilizumab scFv on the light chains) (bispecific antibody)
heavy: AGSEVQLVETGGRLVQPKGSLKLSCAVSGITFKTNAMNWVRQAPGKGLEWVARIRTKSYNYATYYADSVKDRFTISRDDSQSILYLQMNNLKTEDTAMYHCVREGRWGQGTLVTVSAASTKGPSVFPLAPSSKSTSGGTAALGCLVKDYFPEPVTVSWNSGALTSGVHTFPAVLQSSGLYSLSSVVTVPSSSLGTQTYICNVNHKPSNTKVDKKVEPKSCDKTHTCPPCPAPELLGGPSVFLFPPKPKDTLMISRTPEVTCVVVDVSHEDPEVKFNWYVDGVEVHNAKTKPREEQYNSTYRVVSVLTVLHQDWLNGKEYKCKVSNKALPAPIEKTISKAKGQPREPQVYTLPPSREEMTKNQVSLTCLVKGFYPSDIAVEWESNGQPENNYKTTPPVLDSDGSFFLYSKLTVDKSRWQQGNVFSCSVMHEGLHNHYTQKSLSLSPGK
light: AGSQAVVTQESALTTSPGETVTLTCRSSTGAVTTSNYANWVQEKPDHLFTGLIGGTNNRPPGVPARFSGSLIGDKAALTITGAQIEDEAIYFCALWYSNHLVFGGGTKLTVLRTVAAPSVFIFPPSDEQLKSGTASVVCLLNNFYPREAKVQWKVDNALQSGNSQESVTEQDSKDSTYSLSSTLTLSKADYEKHKVYACEVTHQGLSSPVTKSFNRGECGGGGSGGGGSEVQLQESGPGLVRPSQTLSLTCTVSGYSITSDHAWSWVRQPPGRGLEWIGYISYSGITTYNPSLKSRVTMLRDTSKNQFSLRLSSVTAADTAVYYCARSLARTTAMDYWGQGSLVTVSSGGGGSGGGGSGGGGSDIQMTQSPSSLSASVGDRVTITCRASQDISSYLNWYQQKPGKAPKLLIYYTSRLHSGVPSRFSGSGSGTDFTFTISSLQPEDIATYYCQQGNTLPYTFGQGTKVEIK
notes: Human IgG1-based
On to B2, for which the Kd in assay [4] turned out to be 3.5 nM; in assay [5], 19 nM.
